The experiment has as its target biotin-ahx-ahx-EPQpYEEIPIYL (biotinylated pTyr peptide derived from the protein MidT). The experiment can be described thus: BLI; Octet RED96 (ForteBio); biotinylated peptides immobilised on a streptavidin biosensor; SH2 variants at 300, 150 and 0 nM.

For the substance “SH2-WT (wild-type Fyn SH2 domain), 6xHis-tagged protein (from UniProt P06241 149-246) (domain or fragment)”, the Kd was found to be 267 nM.
